From paper PMC9897468 (Proceedings of the National Academy of Sciences of the …, 2022) come the findings set out here.

B1: full-length mouse KIF5AA homodimer (kinesin-1), unlabeled (natural protein, UniProt P33175 1-1027, looked up)
chain: MAETNNECSIKVLCRFRPLNQAEILRGDKFIPIFQGDDSVIIGGKPYVFDRVFPPNTTQEQVYHACAMQIVKDVLAGYNGTIFAYGQTSSGKTHTMEGKLHDPQLMGIIPRIARDIFNHIYSMDENLEFHIKVSYFEIYLDKIRDLLDVTKTNLSVHEDKNRVPFVKGCTERFVSSPEEILDVIDEGKSNRHVAVTNMNEHSSRSHSIFLINIKQENVETEQKLSGKLYLVDLAGSEKVSKTGAEGAVLDEAKNINKSLSALGNVISALAEGTKSYVPYRDSKMTRILQDSLGGNCRTTMFICCSPSSYNDAETKSTLMFGQRAKTIKNTASVNLELTAEQWKKKYEKEKEKTKAQKETIAKLEAELSRWRNGENVPETERLAGEDSALGAELCEETPVNDNSSIVVRIAPEERQKYEEEIRRLYKQLDDKDDEINQQSQLIEKLKQQMLDQEELLVSTRGDNEKVQRELSHLQSENDAAKDEVKEVLQALEELAVNYDQKSQEVEEKSQQNQLLVDELSQKVATMLSLESELQRLQEVSGHQRKRIAEVLNGLMRDLSEFSVIVGNGEIKLPVEISGAIEEEFTVARLYISKIKSEVKSVVKRCRQLENLQVECHRKMEVTGRELSSCQLLISQHEAKIRSLTEYMQTVELKKRHLEESYDSLSDELARLQAHETVHEVALKDKEPDTQDAEEVKKALELQMENHREAHHRQLARLRDEINEKQKTIDELKDLNQKLQLELEKLQADYERLKNEENEKSAKLQELTFLYERHEQSKQDLKGLEETVARELQTLHNLRKLFVQDVTTRVKKSAEMEPEDSGGIHSQKQKISFLENNLEQLTKVHKQLVRDNADLRCELPKLEKRLRATAERVKALEGALKEAKEGAMKDKRRYQQEVDRIKEAVRYKSSGKRGHSAQIAKPVRPGHYPASSPTNPYGTRSPECISYTNNLFQNYQNLHLQAAPSSTSDMYFASSGATSVAPLASYQKANMDNGNATDINDNRSDLPCGYEAEDQAKLFPLHQETAAS

The target of one assay is APC-mGFP (UniProt Q61315 1-2845). The experiment in a line: TIRF-M in vitro motility reconstitution.
The target of assay [1] is B1. The experiment in a line: TIRF-M in vitro motility reconstitution.

Regarding B1, the binding result in the assay with APC-mGFP is on record as “binds”.

B2: C-terminal APC fragment (APC-C), residues 2,163 to 2,845 (domain or fragment, UniProt Q61315 2163-2845, looked up)
chain: KGPRILKPGEKSTLEAKKIESENKGIKGGKKVYKSLITGKIRSNSEISSQMKQPLPTNMPSISRGRTMIHIPGLRNSSSSTSPVSKKGPPLKTPASKSPSEGPGATTSPRGTKPAGKSELSPITRQTSQISGSNKGSSRSGSRDSTPSRPTQQPLSRPMQSPGRNSISPGRNGISPPNKLSQLPRTSSPSTASTKSSGSGKMSYTSPGRQLSQQNLTKQASLSKNASSIPRSESASKGLNQMSNGNGSNKKVELSRMSSTKSSGSESDSSERPALVRQSTFIKEAPSPTLRRKLEESASFESLSPSSRPDSPTRSQAQTPVLSPSLPDMSLSTHPSVQAGGWRKLPPNLSPTIEYNDGRPTKRHDIARSHSESPSRLPINRAGTWKREHSKHSSSLPRVSTWRRTGSSSSILSASSESSEKAKSEDERHVSSMPAPRQMKENQVPTKGTWRKIKESDISPTGMASQSASSGAASGAESKPLIYQMAPPVSKTEDVWVRIEDCPINNPRSGRSPTGNTPPVIDSVSEKGSSSIKDSKDSKDTHGKQSVGSGSPVQTVGLETRLNSFVQVEAPEQKGTEAKPGQSNPVSIAETAETCIAERTPFSSSSSSKHSSPSGTVAARVTPFNYNPSPRKSSADSTSARPSQIPTPVSTNTKKRDSKTDITESSGAQSPKRHSGSYLVTSV
modifications: Alexa647 label (APC-C-647, in the TIRF-M experiments)
B2: the binding result in assay [1] is listed as “binds”.
